Measurements: PMC4178959 (The Journal of Cell Biology, 2014)
Values joined by “and” are separate entries in the source; they are usually repeats but may differ in a detail not shown here. Identical values can stand only once.

B1: His6-BakΔTM (recombinant His-tagged Bak lacking the transmembrane domain, aa 1–186) (domain or fragment, UniProt Q16611 1-186, looked up)
chain: MASGQGPGPPRQECGEPALPSASEEQVAQDTEEVFRSYVFYRHQQEQEAEGVAAPADPEMVTLPLQPSSTMGQVGRQLAIIGDDINRRYDSEFQTMLQHLQPTAENAYEYFTKIATSLFESGINWGRVVALLGFGYRLALHVYQHGLTGFLGQVTRFVVDFMLHHCIARWIAQRGGWVAALNLGNG
B2: GST–procaspase 8 (full-length procaspase 8 fused to GST) (natural protein, UniProt Q14790 1-479, looked up)
chain: MDFSRNLYDIGEQLDSEDLASLKFLSLDYIPQRKQEPIKDALMLFQRLQEKRMLEESNLSFLKELLFRINRLDLLITYLNTRKEEMERELQTPGRAQISAYRVMLYQISEEVSRSELRSFKFLLQEEISKCKLDDDMNLLDIFIEMEKRVILGEGKLDILKRVCAQINKSLLKIINDYEEFSKERSSSLEGSPDEFSNGEELCGVMTISDSPREQDSESQTLDKVYQMKSKPRGYCLIINNHNFAKAREKVPKLHSIRDRNGTHLDAGALTTTFEELHFEIKPHDDCTVEQIYEILKIYQLMDHSNMDCFICCILSHGDKGIIYGTDGQEAPIYELTSQFTGLKCPSLAGKPKVFFIQACQGDNYQKGIPVETDSEEQPYLEMDLSSPQTRYIPDEADFLLGMATVNNCVSYRNPAEGTWYIQSLCQSLRERCPRGDDILTILTEVNYEVSNKDDKKNMGKQMPQPTFTLRKKLVFPSD

How the values were obtained:
[1] = target: B1; test: SPR
[2] = target: GST-Casp8p41 (UniProt Q14790 1-355); test: SPR
[3] = target: GST-Casp8p41 V150A/L157A (UniProt Q14790 1-355, V150A | L157A); test: SPR
[4] = target: GST-Casp8p41 V150E/L157K (UniProt Q14790 1-355, V150E | L157K); test: SPR
[5] = target: the molecule itself; test: cross-linking

## RPEIWIAQELRRIGDEFNAYYARRVF [Bim BH3 peptide]
[1]
  binding result: binds

## B1
[2]
  Kd: 16 nM and 19 nM
[3]
  Kd: 22 nM
[4]
  Kd: 400 nM
[5]
  stoichiometry N: 2

## B2
[1]
  fold less tight binding than GST-Casp8p41: 100 fold
